Source: the Human Domainome abundance scans (Beltran et al. 2025)
± gives the uncertainty stated by the source.

B1: CD2-associated protein, residues 109 to 169; numbered along this chain, Q9Y5K6 (parent)
chain: KKRQCKVLFEYIPQNEDELELKVGDIIDINEEVEEGWWSGTLNNKLGLFPSNFVKELEVTD
B2: F-BAR and double SH3 domains protein 1, residues 467 to 528; numbered along this chain, Q86WN1 (parent)
chain: RALPCPAHVVFRYQAGREDELTITEGEWLEVIEEGDADEWVKARNQHGEVGFVPERYLNFPD

Variants of: B1
Assay: abundance fitness (aPCA) (normalised: wild type 0, dead -1); higher = more abundant; growth selection in yeast, the domain comes from the species named
Conditions: Homo sapiens

Row | Variant | abundance fitness
1 | S51A | 0.09 ± 0.07
2 | S51I | -0.178 ± 0.27
3 | S51L | -0.366 ± 0.088
4 | S51C | -0.311 ± 0.16
5 | S51R | -0.361 ± 0.091
6 | D61R | -0.261 ± 0.18
7 | D61S | -0.692 ± 0.34
8 | D61T | -0.329 ± 0.26
9 | D61Q | -0.014 ± 0.24
10 | D61N | -0.273 ± 0.28
11 | D61K | -0.582 ± 0.35
12 | D61A | -0.29 ± 0.22
13 | D61V | -0.312 ± 0.24
14 | D61C | -0.561 ± 0.23
15 | D61M | -0.106 ± 0.24
16 | D61H | 0.346 ± 0.23
17 | D61Y | -0.376 ± 0.21
18 | D61E | 0.283 ± 0.26
19 | D61P | 0.04 ± 0.32
20 | D61L | -0.301 ± 0.14
21 | F49R | -1.3 ± 0.26
22 | F49E | -0.872 ± 0.45
23 | F49Y | -0.27 ± 0.4
24 | F49L | -0.77 ± 0.15

Row | Variant | abundance fitness
25 | F49T | -0.921 ± 0.29
26 | F49K | -0.524 ± 0.3
27 | F49S | -0.707 ± 0.16
28 | F49G | -1.06 ± 0.27
29 | F49C | -0.953 ± 0.34
30 | F49W | -1.01 ± 0.25
31 | F49D | -0.815 ± 0.4
32 | F49A | -0.755 ± 0.31
33 | E58C | -0.073 ± 0.12
34 | E58G | 0.094 ± 0.11
35 | E58Q | 0.202 ± 0.19
36 | E58M | 0 ± 0.26
37 | E58S | -0.035 ± 0.1
38 | E58L | -0.062 ± 0.081
39 | E58W | 0.098 ± 0.16
40 | E58A | -0.305 ± 0.15
41 | E58K | 0.027 ± 0.12
42 | E58F | -0.207 ± 0.15
43 | E58N | -0.057 ± 0.12
44 | E58R | -0.232 ± 0.1
45 | E58D | 0.056 ± 0.18
46 | E58V | 0.078 ± 0.14
47 | E58T | -0.211 ± 0.18
48 | E58Y | -0.045 ± 0.14

Row | Variant | abundance fitness
49 | E58I | -0.23 ± 0.26
50 | N44S | -0.261 ± 0.18
51 | N44V | -0.795 ± 0.25
52 | N44P | -0.356 ± 0.37
53 | N44Y | -0.483 ± 0.33
54 | N44K | 0.019 ± 0.24
55 | N44R | -0.273 ± 0.16
56 | N44L | -0.489 ± 0.14
57 | N44Q | -0.183 ± 0.24
58 | N44M | -0.318 ± 0.16
59 | N44A | -0.048 ± 0.14
60 | G47S | -1.05 ± 0.26
61 | G47Q | -0.696 ± 0.17
62 | G47L | -0.922 ± 0.16
63 | G47Y | -0.434 ± 0.19
64 | G47F | -0.784 ± 0.28
65 | G47T | -0.644 ± 0.16
66 | G47D | -0.611 ± 0.19
67 | G47M | -1.21 ± 0.4
68 | G47K | -0.773 ± 0.23
69 | G47N | -0.723 ± 0.41
70 | G47P | -0.82 ± 0.17
71 | G47W | -0.759 ± 0.18
72 | G47I | -0.584 ± 0.35

Row | Variant | abundance fitness
73 | F53T | -0.255 ± 0.19
74 | F53P | -0.525 ± 0.2
75 | F53Q | -0.2 ± 0.13
76 | F53M | 0.057 ± 0.13
77 | F53E | -0.894 ± 0.45
78 | F53W | -0.56 ± 0.31
79 | F53L | -0.157 ± 0.093
80 | F53G | -0.48 ± 0.17
81 | F53N | -0.109 ± 0.12
82 | F53R | 0.007 ± 0.079
83 | F53I | 0.149 ± 0.11
84 | F53C | 0.067 ± 0.12
85 | F53K | -0.031 ± 0.15
86 | F53H | 0.054 ± 0.22
87 | F53S | 0.037 ± 0.096
88 | F53A | 0.015 ± 0.13
89 | F53Y | 0.019 ± 0.22
90 | P50V | -1.03 ± 0.41
91 | P50W | -0.764 ± 0.14
92 | P50A | -0.941 ± 0.31
93 | P50R | -0.064 ± 0.075
94 | P50L | -0.665 ± 0.17
95 | P50N | -0.045 ± 0.16
96 | P50G | -0.697 ± 0.17

Row | Variant | abundance fitness
97 | P50M | -0.57 ± 0.21
98 | P50S | -0.465 ± 0.13
99 | P50Q | -0.279 ± 0.17
100 | P50H | 0.078 ± 0.17
101 | P50K | -0.226 ± 0.12
102 | P50T | -0.367 ± 0.16
103 | L42W | -0.945 ± 0.45
104 | L42V | -0.064 ± 0.1
105 | L42Y | -0.01 ± 0.2
106 | N52P | -0.228 ± 0.12
107 | N52R | 0.048 ± 0.079
108 | N52D | -0.016 ± 0.1
109 | N52A | -0.067 ± 0.092
110 | N52H | -0.348 ± 0.21
111 | N52C | 0.114 ± 0.13
112 | N52F | -0.228 ± 0.24
113 | N52W | -0.454 ± 0.12
114 | N52S | -0.02 ± 0.079
115 | N52M | -0.12 ± 0.17
116 | N52E | 0.053 ± 0.086
117 | N52L | -0.287 ± 0.096
118 | N52K | 0.048 ± 0.16
119 | N52Y | -0.34 ± 0.15
120 | N52Q | -0.255 ± 0.11

Variants of: B2
Assay: as above
Conditions: Homo sapiens

Row | Variant | abundance fitness
121 | A2E | 0.196 ± 0.083
122 | A2K | 0.169 ± 0.069
123 | A2M | 0.104 ± 0.085
124 | A2N | 0.147 ± 0.12
125 | A2W | -0.146 ± 0.061
126 | A2L | -0.007 ± 0.045
127 | A2F | 0.144 ± 0.12
128 | A2H | -0.256 ± 0.13
129 | A2Q | 0.007 ± 0.097
130 | A2R | 0.053 ± 0.039
131 | A2G | 0.133 ± 0.043
132 | A2T | 0.184 ± 0.069
133 | A2D | 0.153 ± 0.095
134 | A2Y | 0.389 ± 0.14
135 | A2V | 0.128 ± 0.055
136 | A2C | 0.031 ± 0.061
137 | L3F | 0.05 ± 0.061
138 | L3R | -0.333 ± 0.044
139 | L3C | -0.121 ± 0.063
140 | L3G | -0.609 ± 0.058
141 | L3P | -0.242 ± 0.093
142 | L3K | -0.276 ± 0.1
143 | L3A | -0.693 ± 0.24
144 | L3N | -0.127 ± 0.082

Row | Variant | abundance fitness
145 | L3S | -0.193 ± 0.057
146 | L3Q | -0.362 ± 0.17
147 | L3D | -0.486 ± 0.092
148 | L3E | -0.503 ± 0.12
149 | L3H | -0.206 ± 0.091
150 | L3T | -0.201 ± 0.072
151 | L3M | -0.121 ± 0.085
152 | L3I | -0.058 ± 0.093
153 | R1M | -0.548 ± 0.24
154 | R1K | -0.339 ± 0.094
155 | R1V | -0.519 ± 0.08
156 | R1G | -0.238 ± 0.057
157 | R1H | -0.2 ± 0.16
158 | R1I | -0.052 ± 0.11
159 | R1S | -0.153 ± 0.058
160 | R1D | -0.298 ± 0.19
161 | R1Q | -0.294 ± 0.22
162 | R1C | -0.544 ± 0.091
163 | R1E | -0.431 ± 0.1
164 | R1Y | -0.105 ± 0.081
165 | R1N | 0.002 ± 0.099
166 | R1F | 0.053 ± 0.099
167 | R1L | -0.47 ± 0.1
